IntAct's records for PubMed 21633354

B1: Condensin complex subunit 2 (Schizosaccharomyces pombe (strain ATCC 38366 / 972)), Q9Y7R3 (parent)
chain: MKRASLGGHAPVSLPSLNDDALEKKRAKENSRKQRELRRSSALHSITPRRESLNNSSPFNSSHQVPVLSNFEEWIKLATDNKINSTNTWNFALIDYFHDMSLLRDGEDINFQKASCTLDGCVKIYTSRIDSVATETGKLLSGLANDSKVLQQTEEGEDAENDDEDLQKKKERKRAQRSVKTLVKDFESIRAKKFELECSFDPLFKKMCADFDEDGAKGLLMNHLCVDQHGRIVFDSSDTVIKDLENKDVEAESQEAVVAAPIESHDTEMTNVHDNISRETLNGIYKCYFTDIDQLTICPSLQGFEFDSKGNLDVSLLKSLSDEVNMITTTSLVDNTMEKTDADAASLSSDSDGEEGHIVHALEEMAYDEENPYVDVVPKAMDESENPDFGVDTEVNMADGSTMNENYSIISTAAANGVYEYFDKSMKKNWAGPEHWRIQALRKNINNASTVFNSSNTAESSDNVSRSLSSTERKKRRELDNAIDFLQEVDVEALFTPATSSLKLPKSHWKRHNRCLLPDDYQYDSKRLLQLFLKPKMSVLPNADGEGQLQLNKALDDENDLDGIQPHGFDSDGSDNVDEGIPPYGFGDSDSPKQTPLLTPPSSSGFGDNLLLTARLAKPDMLNYAKRAKKVDVRVLKEKLWKCLDLENTIKENSINSHIEGSEMESEETNMPVKSFFSTVNQLEETYEKKELKDISTSFAFICVLHLANEHNLELTSNEDFSDVFIRPGPNLTTLEALENDV

Variants of: B1
Conditions: with h2a2_schpo hta2, P04910

Variant | effect of a mutation on the interaction
S5A;S41A;S52A | decreasing interaction

Variants of: B1
Conditions: with h2az_schpo pht1, P48003
Chain of h2az_schpo pht1, P48003 (P48003 whole entry): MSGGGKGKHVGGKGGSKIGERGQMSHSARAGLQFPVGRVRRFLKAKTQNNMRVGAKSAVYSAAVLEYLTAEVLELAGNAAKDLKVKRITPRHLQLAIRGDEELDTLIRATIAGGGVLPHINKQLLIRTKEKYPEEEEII

Variant | effect of a mutation on the interaction
S5A;S41A;S52A | decreasing interaction
